System: GST-B′γ1
Test: Titration pull-down of Cyk4 / pCyk4 by immobilized GST-B′γ1
Format: binding
Settings: 10 μg immobilized GST-B′γ1
Description: Next, we thoroughly examined Cyk4 phosphorylation sites by MS and the effect of each phosphorylation on B′ binding. […] Upon phosphorylation in vitro by Plk1, the interaction can be detected with Cyk4 concentration as low as 0.6 μM and the half maximum binding can be obtained with the concentration of pCyk4 (1–177) between 2.5 and 5 μM (Figure 4d). […] No unphosphorylated CyK4 is detected (Figure 4e, left panel). The most abundant species are 2pCyk4 and 3pCyk4 that correspond to bis- and tris-phosphorylated proteoforms, respectively (Figure 4e, left panel). Further tandem MS with collision-induced dissociation (CID) and electron capture dissociation (ECD) of 4pCyk4 pinpointed the four sites that are phosphorylated, S149, S157, S164 and S170 (Figure 4e, right panel). Phosphorylation at these four sites was previously reported collectively, but not simultaneously, in different studies. […] As 5pCyk4 represents a minor species of the pCyk4 (Figure 4e, left panel), we concluded that the increase of binding affinity between B′ and pCyk4 is largely contributed by phosphorylation at S149. […] These collectively confirmed that pCyk4 interacts with PP2A-B′ holoenzymes via the identified B′-binding motif that is responsive to primarily the Plk1 phosphorylation site at S149.
Approximately 10 μg of GST-tagged B′-binding motifs or GST-pCyk4 was bound to 10 μl of glutathione resin via GST tag. […]

Molecule	concentration at which interaction with GST-B′γ1 can be detected [µM]
Cyk4 (1–177): Cyk4 construct (residue 1–177) containing the coiled-coil domain and a portion of the disordered region (protein, UniProt Q9H0H5 1-177, looked up, fragment) MDTMMLNVRNLFEQLVRRVEILSEGNEVQFIQLAKDFEDFRKKWQRTDHELGKYKDLLMKAETERSALDVKLKHARNQVDVEIKRRQRAEADCEKLERQIQLIREMLMCDTSGSIQLSEEQKSALAFLNRGQPSSSNAGNKRLSTIDESGSILSDISFDKTDESLDWDSSLVKTFKL	≥ 20
pCyk4 (1–177): Cyk4 (1–177) phosphorylated in vitro by Plk1 (protein, phosphorylated by Plk1: mono- to pentakis-phosphorylated forms, no unphosphorylated form; sites of the tetrakis form S149, S157, S164 and S170; left off: GST, N-terminal, cleaved, Cyk4 (1–177) phosphorylated in vitro by Plk1) GSMDTMMLNVRNLFEQLVRRVEILSEGNEVQFIQLAKDFEDFRKKWQRTDHELGKYKDLLMKAETERSALDVKLKHARNQVDVEIKRRQRAEADCEKLERQIQLIREMLMCDTSGSIQLSEEQKSALAFLNRGQPSSSNAGNKRLSTIDESGSILSDISFDKTDESLDWDSSLVKTFKL	0.6
